Reference: the RNAGym collection of RNA variant scans (doi:10.1073/pnas.2313332121)
This sample holds only a part of the variants without activity.

B1: TPR 5TU (parent)
chain: GGAUCUUCUCGAUCUAACAAAAAAGACAAAUCUGCCACAAAGCUUGAGAGCAUCUUCGGAUGCAGAGGCGGCAGCCUUCGGUGGCGCGAUAGCGCCAACGUUCUCAACUAUGACACGCAAAACGCGUGCUCCGUUGAAUGGAGUUUAUCAUG

Variants of: B1
Test: polymerase ribozyme fitness, log enrichment relative to wild type (log ratio); higher = more active; in vitro selection for triplet polymerase activity
Outline: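 One round of in vitro selection, in triplicate, was applied to PCR-built, transcribed mutant libraries of each subunit of a heterodimeric triplet polymerase ribozyme. The steps were annealing with a biotinylated primer, partner subunit and triplets, incubation frozen at −7 °C, gel excision of extended constructs, streptavidin-bead capture and RT-PCR. Fitness is the logarithm, base 2, of genotype enrichment over wild-type enrichment from inverse-variance-weighted replicate averages of Illumina-sequenced inputs and outputs, keeping genotypes with ≥10 input reads and ≥1 read per output.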

Row | Variant | polymerase ribozyme fitness (log ratio)
1 | A26G C72U U78G C85G | ≤ -4.2
2 | A26C A47G C63A A91C A97U A98G A138U | ≤ -4.2
3 | A26C A49C | ≤ -4.2
4 | A26C A29C G65A C87G A97G A142G | ≤ -4.2
5 | G25C A49C C93G | ≤ -4.2
6 | G25A A89U C95G | -4.2
7 | A26U A37C A47G C85U U90A U145A U146C | ≤ -4.2
8 | G25C A52C U56A C85U G124C | ≤ -4.2
9 | A26C A41G C54U C75G G88A A107G | ≤ -4.2
10 | A26C G42A A107C | ≤ -4.2
11 | A26G A49G C57U G59A C72A | ≤ -4.2
12 | A26U A49U C87A U134G | ≤ -4.2
13 | A26U A91G A115G A150C | ≤ -4.2
14 | A26G U77A C87U A89C | ≤ -4.2
15 | A26U A39C A49G G128A A138G | ≤ -4.2
16 | G25U A39U U53A C76G U145A | ≤ -4.2
17 | A26G G81A C95U | ≤ -4.2
18 | G25C A41C A52G G86A C96A | ≤ -4.2
19 | G25C C76U C79G C93A C118U | ≤ -4.2
20 | G25A C32A A40C C123A G124A A138C | ≤ -4.2
21 | G25C C27A A28G A40U C149A | ≤ -4.2
22 | A26G C99U | -3.69
23 | A26C C27U | -2.8
24 | A26U C96U C116G | -1.18

Row | Variant | polymerase ribozyme fitness (log ratio)
25 | G25U A89U C96G G100A U102C C118A A119G | ≤ -4.2
26 | A26G A49C A89U G92A U102G G140U | ≤ -4.2
27 | A26U C36A G68C G86U G88C | ≤ -4.2
28 | G25C U31A C96G | -1.31
29 | G25A C54U C96U A150U | -0.00287
30 | A26U C36G U55A G58C C105U | ≤ -4.2
31 | A26U C51U A64U C125U | ≤ -4.2
32 | A26U A40U A91U A122U | ≤ -4.2
33 | G25U G46A C57U C69A G128U A138U | ≤ -4.2
34 | A26C A30C U45A C54G G92A U104G A147G | ≤ -4.2
35 | A26C G92C U104C C108U A115C | ≤ -4.2
36 | A26C G92C | -2.71
37 | G25U U44G U45A U56A G80A C85U A97U | ≤ -4.2
38 | G25U A41G U53G C54U G92C G124A U151C | ≤ -4.2
39 | G25C G83C C87G A91G | ≤ -4.2
40 | A26C U82A C95A | -2
41 | A26U G46U A47U G74C C79G G92U G140A | ≤ -4.2
42 | G25C C57A C63A G92C A113C U134A | ≤ -4.2
43 | A26C C75U G92C | ≤ -4.2
44 | A26U C32G G86A C105U | ≤ -4.2
45 | G25A C38U C85G | -4.07
46 | G25C C54A C105U | -3.21
47 | A26U A40U A91U A121U | ≤ -4.2
48 | G25U C27U C93U G143U | ≤ -4.2

Row | Variant | polymerase ribozyme fitness (log ratio)
49 | A26U C27U U33A G34A U56A C57U C76A C85G G88A U127C | ≤ -4.2
50 | A26G A28G C87A C105G C108U C125A | ≤ -4.2
51 | A26C A47C U77C U102C G117C | ≤ -4.2
52 | A26C C35U U55A C76U C87G G92U A98G | -3.11
53 | A26U G42U | ≤ -4.2
54 | A26C C93G U139G G140U | -4.11
55 | A26C G86A U102A G128U C131G | ≤ -4.2
56 | G25C C57U C123A C125G | -2.33
57 | G25C A39C C76A C79U C87A A110U C114U | ≤ -4.2
58 | A26C G81A C87U G88C G124C G136U G140C | ≤ -4.2
59 | G25U C96A A142G | -4.05
60 | G25C A26U C87G A121U C129G U151A | ≤ -4.2
61 | A26U A49U G68U C72U G84A G86U G112A A122G | ≤ -4.2
62 | A26C A41C C57G | -3.4
63 | G25U A39G U61A U77A C87U G141A U151A | ≤ -4.2
64 | G25U U45A | ≤ -4.2
65 | A26G U55A | -2.03
66 | A26C C79A C87A U134C A150U | ≤ -4.2
67 | A26G A89C A97C G143C | ≤ -4.2
68 | A26U A89G | -3.26
69 | G25A U61A | -3.19
70 | G25U G59A G62C C116U U145A | -1.79
71 | G25A G34U C35G C85G | -4.2
72 | G25C U61A C87G A138G | ≤ -4.2

Row | Variant | polymerase ribozyme fitness (log ratio)
73 | A26G A39G C85U | ≤ -4.2
74 | A26G U78C | -3.95
75 | A26C C43U A52G G71C A97G | ≤ -4.2
76 | A26G C32A A39C C54A A150G | ≤ -4.2
77 | A26C A29U C36A G42A U61A G70A A73C | ≤ -4.2
78 | G25C C87A G100U | ≤ -4.2
79 | G25U C76U G94C A120G | -2.88
80 | A26U C35U C87A G124C | ≤ -4.2
81 | A26C U78C G88A C108G C114G C149G | ≤ -4.2
82 | G25C U33A C69G G71A | ≤ -4.2
83 | A26C A52C C69U G100A C125A | ≤ -4.2
84 | A26C C35U U44A C57U G58U C85A | ≤ -4.2
85 | A26C G117C | -2.51
86 | A26U A47C A49C G80C C85A A113G A150U | ≤ -4.2
87 | G25U C132U | -2.32
88 | A26G C43U U45A G59C G88A | ≤ -4.2
89 | A26C C36A U44G U55A G140C | -4.19
90 | G25U G83A | -3.4
91 | A26C C57A A60C G88A U109G A110G C118G | -3.98
92 | A26U C85U A115G | -3.36
93 | G25A C27G U44A G86C A97U A110C | ≤ -4.2
94 | G25U A26C A49G U61A C76U U104A C114U A119C | ≤ -4.2
95 | G25C A49C C51U U53G C54A C116U G141A G152U | ≤ -4.2
96 | A26G A52G U90G U135A G136C | ≤ -4.2

Row | Variant | polymerase ribozyme fitness (log ratio)
97 | A26C G81A C85G C87A G141U C149G | ≤ -4.2
98 | A26U C51U C72U A73U C85A C99G G100C U111G | ≤ -4.2
99 | A24U U82A C96G | 0.476
100 | A24U U151A | ≤ -4.2
101 | G25U C76U | -2.44
102 | G25U U55A C72G C93G G140A | ≤ -4.2
103 | A24U U82G G83C | -1.55
104 | A26C G65A C79A A89U A97C G117A | ≤ -4.2
105 | A26U C72G G81A G86C | ≤ -4.2
106 | G25C G46A U144C | -4.12
107 | G25C A52G G83C | -3.42
108 | A26U C35U A47C C54G A64G A66U C93A A142G | ≤ -4.2
109 | A26U C75A U82G G92U G100A A107U U144A | ≤ -4.2
110 | A26C C27G C51G G83C A89C A138G A142U | ≤ -4.2
111 | A26U C32G U45C G50C U53G G84A C99U A137G | ≤ -4.2
112 | A26U C69G A142U | -2.62
113 | G25U C69A U82G A89G C125U C149U | ≤ -4.2
114 | A26C G34C A52C C75A G80C | ≤ -4.2
115 | G25U G50C U77A C87U A107G | ≤ -4.2
116 | G25U C38U A47U U56G U61A G65C C79G C103G U134A | ≤ -4.2
117 | G25C A41C U55A U61A C116U U144A | ≤ -4.2
118 | A26U A49G C93U G124C U135G A138G | ≤ -4.2
119 | G25C C35U G74C C75A U148G | ≤ -4.2
120 | A26C A107G | ≤ -4.2

Row | Variant | polymerase ribozyme fitness (log ratio)
121 | G25C A150C | -3.47
122 | A26C C38U G86U U144G | -3.75
123 | G25U C32U C36A C85U C114U C129U U134C | ≤ -4.2
124 | A26U A28U C32A A52U A73U A91U G92A A113G U148A G152U | ≤ -4.2
125 | A26C C96A A120G G124U | -2.02
126 | A26G U53A G88U G92U C118A A147G | ≤ -4.2
127 | G25U C69G G83U C95U | -3
128 | A26C U44A U55G G86A G88C | ≤ -4.2
129 | G25U U61G | -2.3
130 | G25U U61A | -3.25
131 | A26C A91G A121C U139C | ≤ -4.2
132 | G25C C93U | -3.59
133 | A26U C51U A52U C54G G86U C99A A107C C123G | ≤ -4.2
134 | A26U C54A C93A A138C G141C | ≤ -4.2
135 | G25C A64C C96U | ≤ -4.2
136 | G25U G50C C87G G136U | ≤ -4.2
137 | G25C G48C A66G C93A | ≤ -4.2
138 | A26U A30U A37C U61A A66C G67C C69U C87A C105A C125U | ≤ -4.2
139 | G25C A97G | -2.53
140 | A26C C51G G65A G74C G81U C93G A119U C132U G141C | ≤ -4.2
141 | G25C G46C C85G C87U G124C C125U U146C | ≤ -4.2
142 | G25U G46C G50A G62A C96U | ≤ -4.2
143 | G25U C69G U146A | -4.05
144 | A26U A49G C95U | -3.28

Row | Variant | polymerase ribozyme fitness (log ratio)
145 | G25C C85U A89U U135G | ≤ -4.2
146 | A26C U144C | -2.23
147 | A26C U144G | -0.859
148 | A24U U135C | -2.21
149 | A26G A30C A39C A47U C76U C93U A97G G133A G140U G141A | -4.02
150 | G25C A52C G58C G62U U78G U82C C93A C125G | ≤ -4.2
151 | G25U G50C C76A C87A U139G G141C | -4.02
152 | A26G A29C C79A G100A | ≤ -4.2
153 | A26G U44A C54U C87A C99U U111G G143U | ≤ -4.2
154 | A26C G100U | -4
155 | A26C C76U G81U G86A U144C | -3.81
156 | A26G U145A | -3.59
157 | A26C G50U C54U C96G | -3.92
158 | G25U G50U C54A A66U A91C | ≤ -4.2
159 | A26G C35U | -3.06
160 | A26U A49G C57A G88U G92A G100A A106U C125U | ≤ -4.2
161 | G25U G86A C105U | -3.5
162 | G25A G34C U44A G84A G88A | ≤ -4.2
163 | G25C U53A U61A C95G | -4.18
164 | A26G C69U C79U C87U A91U | ≤ -4.2
165 | G25U A30G A47G C51U G80C A110C | ≤ -4.2
166 | A26U A98G U127G | ≤ -4.2
167 | G25U A29U C43A A64U C93U C131U | ≤ -4.2
